System: Escherichia coli TOP10
Assay: shrunken log2 fold change of peptide-encoding DNA abundance (4.5 h post-induction vs induction); higher = less antimicrobial activity (less host growth inhibition)
Settings: time post-induction: 4.5 h; library: site-saturation at positions 5, 18, 19, 20
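Note: peptides expressed intracellularly from a pBAD plasmid library in pooled LB shake-flask culture, induced with 0.3% L-arabinose, DNA abundance read by NGS, three biological replicates, DESeq2 with apeglm shrinkage.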

Row | Sequence | shrunken log2 fold change
1 | RRIRCRPPRLPRPRPRPDFDPRP | -0.0217
2 | RRIRCRPPRLPRPRPRPDFNPRP | -0.242
3 | RRIRCRPPRLPRPRPRPDFTPRP | -0.0655
4 | RRIRCRPPRLPRPRPRPDGEPRP | 0.0622
5 | RRIRCRPPRLPRPRPRPDHAPRP | -0.0323
6 | RRIRCRPPRLPRPRPRPDHGPRP | -0.234
7 | RRIRCRPPRLPRPRPRPDIQPRP | -0.268
8 | RRIRCRPPRLPRPRPRPDKEPRP | -0.00172
9 | RRIRCRPPRLPRPRPRPDKHPRP | -0.333
10 | RRIRCRPPRLPRPRPRPDNQPRP | -0.696
11 | RRIRCRPPRLPRPRPRPDQGPRP | -0.143
12 | RRIRCRPPRLPRPRPRPDQHPRP | 0.0432
13 | RRIRCRPPRLPRPRPRPDSFPRP | 0.211
14 | RRIRCRPPRLPRPRPRPDTMPRP | 0.00262
15 | RRIRCRPPRLPRPRPRPDTNPRP | -0.285
16 | RRIRCRPPRLPRPRPRPDVKPRP | -0.153
17 | RRIRCRPPRLPRPRPRPDWYPRP | -0.241
18 | RRIRCRPPRLPRPRPRPDYIPRP | 0.0495
19 | RRIRCRPPRLPRPRPRPDYTPRP | -0.442
20 | RRIRCRPPRLPRPRPRPEADPRP | 0.819
21 | RRIRCRPPRLPRPRPRPEAKPRP | 0.208
22 | RRIRCRPPRLPRPRPRPEAQPRP | 0.704
23 | RRIRCRPPRLPRPRPRPEEQPRP | -0.0372
24 | RRIRCRPPRLPRPRPRPEERPRP | -0.0298
25 | RRIRCRPPRLPRPRPRPEESPRP | -0.00538

Row | Sequence | shrunken log2 fold change
26 | RRIRCRPPRLPRPRPRPEFSPRP | 0.072
27 | RRIRCRPPRLPRPRPRPEGMPRP | 0.422
28 | RRIRCRPPRLPRPRPRPEHEPRP | 0.188
29 | RRIRCRPPRLPRPRPRPEHRPRP | -0.0739
30 | RRIRCRPPRLPRPRPRPEHSPRP | 0.0871
31 | RRIRCRPPRLPRPRPRPELPPRP | 0.762
32 | RRIRCRPPRLPRPRPRPELRPRP | 0.0185
33 | RRIRCRPPRLPRPRPRPENEPRP | 0.113
34 | RRIRCRPPRLPRPRPRPEPFPRP | 0.0621
35 | RRIRCRPPRLPRPRPRPEQRPRP | 0.23
36 | RRIRCRPPRLPRPRPRPERCPRP | 0.302
37 | RRIRCRPPRLPRPRPRPERNPRP | -0.223
38 | RRIRCRPPRLPRPRPRPERRPRP | 0.0271
39 | RRIRCRPPRLPRPRPRPERTPRP | 0.766
40 | RRIRCRPPRLPRPRPRPESMPRP | 0.114
41 | RRIRCRPPRLPRPRPRPESNPRP | 0.00481
42 | RRIRCRPPRLPRPRPRPESWPRP | 0.598
43 | RRIRCRPPRLPRPRPRPETIPRP | -0.0356
44 | RRIRCRPPRLPRPRPRPEVAPRP | 0.293
45 | RRIRCRPPRLPRPRPRPEYAPRP | 0.204
46 | RRIRCRPPRLPRPRPRPEYWPRP | -0.0559
47 | RRIRCRPPRLPRPRPRPFAAPRP | 0.308
48 | RRIRCRPPRLPRPRPRPFAHPRP | -0.355
49 | RRIRCRPPRLPRPRPRPFAQPRP | 0.00363
50 | RRIRCRPPRLPRPRPRPFCRPRP | -0.0846

Row | Sequence | shrunken log2 fold change
51 | RRIRCRPPRLPRPRPRPFDPPRP | -0.0744
52 | RRIRCRPPRLPRPRPRPFDTPRP | -0.192
53 | RRIRCRPPRLPRPRPRPFGHPRP | 0.0616
54 | RRIRCRPPRLPRPRPRPFHQPRP | -0.429
55 | RRIRCRPPRLPRPRPRPFHRPRP | 0.00717
56 | RRIRCRPPRLPRPRPRPFICPRP | -0.57
57 | RRIRCRPPRLPRPRPRPFIIPRP | -0.577
58 | RRIRCRPPRLPRPRPRPFKCPRP | -0.232
59 | RRIRCRPPRLPRPRPRPFLGPRP | -0.305
60 | RRIRCRPPRLPRPRPRPFLHPRP | -0.703
61 | RRIRCRPPRLPRPRPRPFMGPRP | -0.585
62 | RRIRCRPPRLPRPRPRPFPCPRP | -0.367
63 | RRIRCRPPRLPRPRPRPFPFPRP | -0.353
64 | RRIRCRPPRLPRPRPRPFPHPRP | -0.175
65 | RRIRCRPPRLPRPRPRPFPRPRP | 0.134
66 | RRIRCRPPRLPRPRPRPFPTPRP | -0.249
67 | RRIRCRPPRLPRPRPRPFRCPRP | -0.0165
68 | RRIRCRPPRLPRPRPRPFRHPRP | -0.143
69 | RRIRCRPPRLPRPRPRPFRPPRP | -0.515
70 | RRIRCRPPRLPRPRPRPFTHPRP | -0.818
71 | RRIRCRPPRLPRPRPRPFTNPRP | -0.685
72 | RRIRCRPPRLPRPRPRPFTQPRP | -0.559
73 | RRIRCRPPRLPRPRPRPFVEPRP | -0.507
74 | RRIRCRPPRLPRPRPRPFVKPRP | -0.4
75 | RRIRCRPPRLPRPRPRPFYLPRP | -0.564

Row | Sequence | shrunken log2 fold change
76 | RRIRCRPPRLPRPRPRPFYNPRP | -1.05
77 | RRIRCRPPRLPRPRPRPFYSPRP | -0.507
78 | RRIRCRPPRLPRPRPRPGDCPRP | 0.0297
79 | RRIRCRPPRLPRPRPRPGEHPRP | -0.0986
80 | RRIRCRPPRLPRPRPRPGETPRP | 0.238
81 | RRIRCRPPRLPRPRPRPGEVPRP | 0.212
82 | RRIRCRPPRLPRPRPRPGFIPRP | 0.067
83 | RRIRCRPPRLPRPRPRPGFNPRP | -0.391
84 | RRIRCRPPRLPRPRPRPGFQPRP | -0.356
85 | RRIRCRPPRLPRPRPRPGFSPRP | -0.257
86 | RRIRCRPPRLPRPRPRPGHLPRP | -0.0824
87 | RRIRCRPPRLPRPRPRPGHRPRP | -0.0213
88 | RRIRCRPPRLPRPRPRPGIKPRP | -0.876
89 | RRIRCRPPRLPRPRPRPGKVPRP | 0.181
90 | RRIRCRPPRLPRPRPRPGLSPRP | -0.248
91 | RRIRCRPPRLPRPRPRPGLVPRP | 0.0569
92 | RRIRCRPPRLPRPRPRPGMHPRP | -0.0345
93 | RRIRCRPPRLPRPRPRPGNTPRP | -0.205
94 | RRIRCRPPRLPRPRPRPGPHPRP | 0.0758
95 | RRIRCRPPRLPRPRPRPGPPPRP | 0.942
96 | RRIRCRPPRLPRPRPRPGPRPRP | 0.713
97 | RRIRCRPPRLPRPRPRPGQFPRP | -0.564
98 | RRIRCRPPRLPRPRPRPGQPPRP | 0.126
99 | RRIRCRPPRLPRPRPRPGREPRP | 2.28
100 | RRIRCRPPRLPRPRPRPGRFPRP | 0.0435

Row | Sequence | shrunken log2 fold change
101 | RRIRCRPPRLPRPRPRPGTEPRP | 0.078
102 | RRIRCRPPRLPRPRPRPGTGPRP | 0.119
103 | RRIRCRPPRLPRPRPRPGWDPRP | 0.257
104 | RRIRCRPPRLPRPRPRPGYKPRP | -0.0902
105 | RRIRCRPPRLPRPRPRPGYQPRP | -0.06
106 | RRIRCRPPRLPRPRPRPGYYPRP | -0.281
107 | RRIRCRPPRLPRPRPRPHANPRP | -0.0108
108 | RRIRCRPPRLPRPRPRPHCAPRP | -0.254
109 | RRIRCRPPRLPRPRPRPHCLPRP | -1.4
110 | RRIRCRPPRLPRPRPRPHDVPRP | -0.314
111 | RRIRCRPPRLPRPRPRPHFNPRP | -0.589
112 | RRIRCRPPRLPRPRPRPHGEPRP | 0.0148
113 | RRIRCRPPRLPRPRPRPHHMPRP | -1.36
114 | RRIRCRPPRLPRPRPRPHHSPRP | -0.201
115 | RRIRCRPPRLPRPRPRPHIPPRP | -0.245
116 | RRIRCRPPRLPRPRPRPHKIPRP | -0.217
117 | RRIRCRPPRLPRPRPRPHKKPRP | 0.242
118 | RRIRCRPPRLPRPRPRPHKRPRP | 0.0953
119 | RRIRCRPPRLPRPRPRPHKWPRP | -0.174
120 | RRIRCRPPRLPRPRPRPHMLPRP | -0.431
121 | RRIRCRPPRLPRPRPRPHNHPRP | -0.625
122 | RRIRCRPPRLPRPRPRPHPGPRP | -0.156
123 | RRIRCRPPRLPRPRPRPHQIPRP | -0.389
124 | RRIRCRPPRLPRPRPRPHQNPRP | -0.276
125 | RRIRCRPPRLPRPRPRPHRKPRP | -0.0176

Row | Sequence | shrunken log2 fold change
126 | RRIRCRPPRLPRPRPRPHTFPRP | -0.467
127 | RRIRCRPPRLPRPRPRPHWVPRP | -0.0374
128 | RRIRCRPPRLPRPRPRPIAHPRP | -0.0801
129 | RRIRCRPPRLPRPRPRPICIPRP | -0.191
130 | RRIRCRPPRLPRPRPRPICVPRP | 0.0832
131 | RRIRCRPPRLPRPRPRPIGRPRP | -0.0502
132 | RRIRCRPPRLPRPRPRPIHNPRP | -0.725
133 | RRIRCRPPRLPRPRPRPIHRPRP | -0.0331
134 | RRIRCRPPRLPRPRPRPIKKPRP | -0.0497
135 | RRIRCRPPRLPRPRPRPILAPRP | 0.127
136 | RRIRCRPPRLPRPRPRPIPAPRP | 0.0747
137 | RRIRCRPPRLPRPRPRPIPCPRP | -0.489
138 | RRIRCRPPRLPRPRPRPIQGPRP | -0.0195
139 | RRIRCRPPRLPRPRPRPIREPRP | -0.0298
140 | RRIRCRPPRLPRPRPRPIRTPRP | -0.673
141 | RRIRCRPPRLPRPRPRPISGPRP | 0.0437
142 | RRIRCRPPRLPRPRPRPISKPRP | -0.37
143 | RRIRCRPPRLPRPRPRPISLPRP | -0.426
144 | RRIRCRPPRLPRPRPRPISPPRP | 0.153
145 | RRIRCRPPRLPRPRPRPIVIPRP | -1.09
146 | RRIRCRPPRLPRPRPRPIWNPRP | -0.343
147 | RRIRCRPPRLPRPRPRPKAEPRP | 0.173
148 | RRIRCRPPRLPRPRPRPKALPRP | 0.0255
149 | RRIRCRPPRLPRPRPRPKDSPRP | -0.198
150 | RRIRCRPPRLPRPRPRPKEAPRP | 0.085
